Data published in patent US20130177981A1 (WISCONSIN ALUMNI RESEARCH FOUNDATION, published 2013).
Like-named read-outs stand apart in the source and are kept apart here. Where no end group is shown, it is not given here. [ ]: non-standard residue; d: D form. APC = trans-3-aminopyrrolidine-4-carboxylic acid; ACPC = trans-2-aminocyclopentanecarboxylic acid; β3hR = N=C(N)NCCC[C@H](N)CC(=O)O; β3hT = C[C@@H](O)[C@H](N)CC(=O)O; β3hE = N[C@@H](CCC(=O)O)CC(=O)O; β3hA = C[C@H](N)CC(=O)O

B1: (α+α/β)-peptide 5 (peptide)
peptide: Ac-TTWEAWDRAIAEYAARIEALI[β3hR]AAQ[β3hE]QQ[β3hE]KNE[β3hA]AL[β3hR]EL
notes: Chimera of α-peptide 3 and α/β-peptide 4; also called oligomer 5
B2: chimeric CHR α/β-peptide 8 (peptide)
peptide: Ac-TTWEAWDRAIAEYA[ACPC]RIE[ACPC]LI[APC]AAQ[β3hE]QQ[β3hE]KNE[ACPC]AL[APC]EL-NH2
modifications: not fully specified
notes: Made from 7 by replacing two β3-hArg residues with APC
B3: α/β-peptide 10 (peptide)
peptide: Ac-[β3hT]TWE[ACPC]WD[APC]AIA[β3hE]YA[ACPC]RIE[ACPC]LI[APC]AAQ[β3hE]QQ[β3hE]KNE[ACPC]AL[APC]EL-NH2
notes: Made from 9 by replacing the three β3-hArg residues with APC; also called foldamer 10
B4: α/β-peptide 11 (peptide)
peptide: Ac-A[β3hE]YA[ACPC]RIE[ACPC]LI[APC]AAQ[β3hE]QQ[β3hE]KNE[ACPC]AL[APC]EL
notes: also called oligomer 11; truncated α/β-peptide 11
B5: α/β-peptide 6 (peptide)
peptide: Ac-TTWEAWDRAIAEYA[β3hA]RIE[β3hA]LI[β3hR]AAQ[β3hE]QQ[β3hE]KNE[β3hA]AL[β3hR]EL
notes: also called (α+α/β)-peptide 6; oligomer 6

Legend:
[1] = target: T1, gp41 of the envelope glycoprotein of the HIV-1 clone HxB2 (HIV-1 clone HxB2, UniProt P04578 33-856); assay: cell-based or functional assay
[2] = target: T1, gp41 of the envelope glycoprotein of …; assay: cell-based or functional assay; remark: listed apart in the source
[3] = target: gp41 of HIV-1 strain NL4-3 (HIV-1 strain NL4-3); assay: cell-based or functional assay
gp41 of HIV-1 strain HC4 = gp41 of HIV-1 strain HC4 (HIV-1 strain HC4); assay: cell-based or functional assay
[4] = target: gp41 of HIV-1 strain CC 1/85 (HIV-1 strain CC 1/85); assay: cell-based or functional assay
[5] = target: gp41 of HIV-1 strain DJ258 (HIV-1 strain DJ258); assay: cell-based or functional assay
gp41-5 [6] = target: T2, gp41-5 (HIV); assay: competition FP; displacement of Flu-C38 from gp41-5
T2 construct: also called gp41-5 protein construct; five-helix bundle protein

gp41-5 [7] = target: T2, gp41-5; assay: as above; remark: listed apart in the source
Procedure: Competition fluorescence polarization assays were conducted in black 96-well plates. […] A second stock plate was prepared containing serial dilutions of peptide inhibitors in DMSO. The peptide stock solutions were transferred to the assay plate (1 μL per well). […] All experimental conditions were carried out in duplicate, and each peptide was assayed in 2-3 independent experiments. Data analysis was carried out in GraphPad Prism. Raw mP data from each experiment were fit to a sigmoidal dose response and normalized to the resulting parameters for the top and bottom of the curve. All experiments included at least one compound showing complete inhibition at the highest concentrations tested. Normalized data from multiple independent runs of the each oligomer were combined and globally fit to an exact analytical expressions for FP competitive binding with Kᵢ as the only floating parameter.

NHR α-peptide 1 [8] = target: T3, NHR α-peptide 1 (HIV, N-terminus acetyl-capped); assay: CD at 222 nm, thermal unfolding, 20 µM total peptide in PBS
T3 construct: Forms a six-helix bundle (three NHR and three CHR helices) when mixed with CHR peptides; also called NHR peptide 1

NHR α-peptide 1 [9] = target: T3, NHR α-peptide 1; assay: as above; remark: listed apart in the source
gp41-5 [10] = target: T2, gp41-5; assay: competition FP on gp41-5
[11] = target: the molecule itself; assay: crystal structure of 10 alone (self-assembly)
gp41-5 [12] = target: T2, gp41-5; assay: competition FP; displacement of Flu-C38 from gp41-5; remark: listed apart in the source

Binder | Cell-Cell Fusion IC50 [1] [µM] | Cell-cell fusion inhibition IC50 [2] [µM] | Inhibition of HIV-1 infectivity, IC50 (nM), NL4-3 [3] [nM] | Inhibition of HIV-1 infectivity, IC50 (nM), HC4 (gp41 of HIV-1 strain HC4) [nM] | Inhibition of HIV-1 infectivity, IC50 (nM), CC 1/85 [4] [nM] | Inhibition of HIV-1 infectivity, IC50 (nM), DJ258 [5] [nM] | Ki (gp41-5 [6]) [µM] | Ki (gp41-5 [7]) [µM] | Tm,app of the 1:1 NHR + CHR mixture (NHR α-peptide 1 [9]) [° C.] | further results
B1 | 0.007 | 0.007 | 10 | 55 | 270 | 280 | 0.0002 | < 0.0002 | 67 | Tm of the 1:1 NHR + CHR mixture (NHR α-peptide 1 [8]): 69 ° C.
B2 | – | – | – | – | – | – | – | – | 65 | –
B3 | 0.005 | 0.005 | 28 | 59 | 180 | 110 | 0.009 | 0.009 | 55 | fold difference in affinity against 5 (gp41-5 [10]): > 45 fold; fold enhanced binding relative to 4 (gp41-5 [10]): ~380 fold; fold improvement in Ki relative to 9 (gp41-5 [10]): ~10 fold; binding result [11]: binds; Tm of the 1:1 NHR + CHR mixture (NHR α-peptide 1 [8]): 55 ° C.
Ac-[β3hT]TWE[ACPC]WD[β3hR]AIA[β3hE]YA[ACPC]RIE[ACPC]LI[β3hR]AAQ[β3hE]QQ[β3hE]KNE[ACPC]AL[β3hR]EL (not fully specified, to be checked against the listing) [α/β-peptide 9] | – | – | – | – | – | – | 0.083 | 0.083 | – | fold higher affinity than 4 (gp41-5 [10]): 50 fold; fold improvement in Ki relative to 4 (gp41-5 [10]): > 45 fold
Ac-TTWEAWDRAIAEYAARIEALIRAAQEQQEKNEAALREL (also called T-2635; CHR α-peptide 3) [α-peptide 3] | 0.009 | 0.009 | 5 | 27 | 140 | 58 | 0.0002 | < 0.0002 | 77 | Tm of the 1:1 NHR + CHR mixture (NHR α-peptide 1 [8]): 77 ° C.
B4 | – | – | – | – | – | – | – | > 10 | – | –
Ac-[β3hR]TWE[β3hE]WD[β3hR]AIA[β3hE]YA[ACPC]RIE[ACPC]LI[APC]AAQ[ACPC]QQ[APC]KNE[ACPC]AL[APC]EL-NH2 (not fully specified, also called compound 16; peptide 16) [α/β foldamer 16] | – | – | – | – | – | – | – | – | – | Ki (gp41-5 [12]): 0.003 µM
Ac-TTWEAWDRAIAEYA[ACPC]RIE[ACPC]LI[β3hR]AAQ[β3hE]QQ[β3hE]KNE[ACPC]AL[β3hR]EL (also: other residues as in 6, also called oligomer 7) [α/β-peptide 7] | – | – | – | – | – | – | 0.0004 | 0.0004 | – | fold higher affinity relative to 6 (gp41-5 [10]): > 30 fold; fold improvement in binding relative to 6 (gp41-5 [10]): 40 fold
B5 | – | – | – | – | – | – | 0.015 | 0.015 | – | –
Ac-[β3hR]TWE[β3hE]WD[β3hR]AIA[β3hE]YA[β3hR]RIE[β3hE]LI[β3hR]AAQ[β3hE]QQ[β3hR]KNE[β3hE]AL[β3hR]EL-NH2 (also called compound 17; peptide 17) [α/β foldamer 17] | – | – | – | – | – | – | – | – | – | Ki (gp41-5 [12]): 0.011 µM
Ac-[β3hT]TWE[β3hA]WD[β3hR]AIA[β3hE]YA[β3hA]RIE[β3hA]LI[β3hR]AAQ[β3hE]QQ[β3hE]KNE[β3hA]AL[β3hR]EL (also called oligomer 4) [α/β-peptide 4] | 0.39 | 0.39 | 700 | 590 | 1300 | 960 | 3.8 | 3.8 | – | fold weaker binding than α-peptide 3 (gp41-5 [10]): > 10000 fold
